Where “and” joins values, the source holds several entries; their conditions need not be identical. Equal values may be shown once.
What was measured:
IGFBP-3 = assay: Serum IGFBP-3 levels in cynomolgus monkeys after a single antibody dose; assay type: in vivo, cynomolgus monkey; settings: for serum IGFBP-3 levels (% change from baseline) / serum IGFBP-3 decrease below baseline: cynomolgus monkeys
Protocol: To determine if GHR antagonist monoclonal antibodies can affect IGF-1, IGFBP-3, and ALS levels in vivo by inhibiting the function of GHR, the effect of humanized anti-human GHR antibody SS1 was tested in cynomolgus monkeys. A dose-response study was conducted to test for changes in IGF-1, IGFBP-3, and ALS levels following a single dose of SS1. Eight naïve female cynomolgus monkeys were injected intravenously with a single dose of SS1 or negative control human IgG2, in 1×PBS 0.01% Tween™ 20. Two monkeys were dosed with 30 mg/kg SS1, two were dosed with 10 mg/kg SS1, two were dosed with 3 mg/kg SS1, and two were dosed with 30 mg/kg negative control human IgG2Δa on Day 1. […] Serum was also taken from the 30 mg/kg SS1 and negative control treated animals at 864 h post-dose.
Serum samples were analyzed for changes in IGFBP-3 levels compared to baseline using an R&D Systems™ Quantikine™ human IGFBP-3 immunoassay kit (cat. #DGB300).

human GHR = target: T1, human GHR (Homo sapiens, UniProt P10912); assay: Biacore kinetics and affinity, captured IgG, human GHR analyte, 25° C.; assay type: binding; settings: IgG immobilized by capture
T1 construct: his-tagged monomers of amino acids 31-235 of the extracellular domain of the human or cyno GHR
T1 sequence (P10912 49-253): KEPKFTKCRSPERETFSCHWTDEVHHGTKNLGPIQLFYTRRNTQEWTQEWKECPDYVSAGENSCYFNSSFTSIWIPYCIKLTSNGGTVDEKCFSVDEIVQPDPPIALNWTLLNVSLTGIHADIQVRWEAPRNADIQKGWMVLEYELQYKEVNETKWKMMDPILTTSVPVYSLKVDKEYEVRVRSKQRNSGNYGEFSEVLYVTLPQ
Protocol: The affinity of a mouse anti-GHR antibody, Ab13, to human and cyno GHR was measured on a Biacore™ 2000 biosensor (GE Lifesciences™, Piscataway N.J.). An anti-mouse Ig sensor surface was prepared using a Biacore™ CM5 chip and reagents from the Biacore™ mouse antibody capture kit (GE Lifesciences™, Catalog# BR-1008-38), using instructions provided by the manufacturer.
The kinetics assay was run using a kinetic titration methodology as described in Karlsson et al., 2006, Anal. Biochem 349, 136-147. The mouse antibody, Ab13, was captured onto downstream flow cells at 0.5 μg/mL at a flow rate of 5 μL/min for 1 minute, 2 minutes and 4 minutes on flow cells 2, 3 and 4 respectively. Flow cell 1 was used as a reference surface. […]
The affinities of a humanized GHR antibody, SS1, and a chimeric molecule comprising the Fab of Ab13 fused to a human Fc domain (“Ab13-hFc”) to human and cyno GHR was measured on a Biacore™ 2000 biosensor (GE Lifesciences™ Piscataway N.J.). […]
The kinetics assay was run using a methodology with varying dissociation times as described in Katsamba et al., 2006, Anal. Biochem 352, 208-221. […] After the analyte injection, dissociation was monitored for 30 minutes (for the 400 nM GHR cycle) or 30 seconds (all other cycles) followed by regeneration of all flow cells with two 30-second injections of 75 mM phosphoric acid. […]

B1: SS1: humanized GHR antagonist antibody; VL SEQ ID NO: 7, VH SEQ ID NO: 8; hIgG2Δa heavy chain SEQ ID NO: 134, light chain SEQ ID NO: 135 (antibody)
heavy: EVQLVESGGGLVKPGGSLRLSCAASGFTFSDAWMDWVRQAPGKGLEWVAEIRSKANYHATYYAESVKGRFTISRDDSKNTLYLQMNSLKTEDTAVYYCTLIRDYWGQGTLVTVSSASTKGPSVFPLAPCSRSTSESTAALGCLVKDYFPEPVTVSWNSGALTSGVHTFPAVLQSSGLYSLSSVVTVPSSNFGTQTYTCNVDHKPSNTKVDKTVERKCCVECPPCPAPPVAGPSVFLFPPKPKDTLMISRTPEVTCVVVDVSHEDPEVQFNWYVDGVEVHNAKTKPREEQFNSTFRVVSVLTVVHQDWLNGKEYKCKVSNKGLPSSIEKTISKTKGQPREPQVYTLPPSREEMTKNQVSLTCLVKGFYPSDIAVEWESNGQPENNYKTTPPMLDSDGSFFLYSKLTVDKSRWQQGNVFSCSVMHEALHNHYTQKSLSLSPGK
light: EIVLTQSPGTLSLSPGERATLSCTATSSVSSSYLNWYQQKPGQAPRLLIYSTSNLASGIPDRFSGSGSGTDFTLTISRLEPEDFAVYYCHQYHRSTPTFGGGTKVEIKRTVAAPSVFIFPPSDEQLKSGTASVVCLLNNFYPREAKVQWKVDNALQSGNSQESVTEQDSKDSTYSLSSTLTLSKADYEKHKVYACEVTHQGLSSPVTKSFNRGEC
modifications: Humanized and/or affinity matured antibody sequence
With B1 the “serum IGFBP-3 levels (% change from baseline)” value (IGFBP-3; SS1 3 mg/kg IV single dose, 24 h post-injection) was −18.75 +/− 1.25%, the “serum IGFBP-3 levels (% change from baseline)” value (IGFBP-3; SS1 3 mg/kg IV single dose, 48 h post-injection) was −22.8 +/− 3.8% and the “serum IGFBP-3 levels (% change from baseline)” value (IGFBP-3; SS1 3 mg/kg IV single dose, 72 h post-injection) was −36.45 +/− 6.65%. The “serum IGFBP-3 levels (% change from baseline)” value (IGFBP-3; SS1 3 mg/kg IV single dose, 96 h post-injection) was −37.35 +/− 5.05%, the “serum IGFBP-3 levels (% change from baseline)” value (IGFBP-3; SS1 3 mg/kg IV single dose, 120 h post-injection) was −38.25 +/− 4.85% and the “serum IGFBP-3 levels (% change from baseline)” value (IGFBP-3; SS1 3 mg/kg IV single dose, 144 h post-injection) was −46.8 +/− 0.6%. The “serum IGFBP-3 levels (% change from baseline)” value (IGFBP-3; SS1 3 mg/kg IV single dose, 192 h post-injection) was −32.55 +/− 1.35%, the “serum IGFBP-3 levels (% change from baseline)” value (IGFBP-3; SS1 3 mg/kg IV single dose, 312 h post-injection) was 22.4 +/− 1.9% and the “serum IGFBP-3 levels (% change from baseline)” value (IGFBP-3; SS1 3 mg/kg IV single dose, 336 h post-injection) was 28.15 +/− 12.25%. For the same molecule, the “serum IGFBP-3 decrease below baseline” value (IGFBP-3; SS1 3 mg/kg IV single dose, by 72 hours) was “about 36%”, the “serum IGFBP-3 decrease below baseline” value (IGFBP-3; SS1 3 mg/kg IV single dose, by 144 hours) was “about 47%” and the “serum IGFBP-3 levels (% change from baseline)” value (IGFBP-3; SS1 10 mg/kg IV single dose, 24 h post-injection) was −23.95 +/− 3.35%. The “serum IGFBP-3 levels (% change from baseline)” value (IGFBP-3; SS1 10 mg/kg IV single dose, 48 h post-injection) was −28.4 +/− 2.9%, the “serum IGFBP-3 levels (% change from baseline)” value (IGFBP-3; SS1 10 mg/kg IV single dose, 72 h post-injection) was −37.9 +/− 2.4% and the “serum IGFBP-3 levels (% change from baseline)” value (IGFBP-3; SS1 10 mg/kg IV single dose, 96 h post-injection) was −40.95 +/− 0.35%. The “serum IGFBP-3 levels (% change from baseline)” value (IGFBP-3; SS1 10 mg/kg IV single dose, 120 h post-injection) was −46.4 +/− 1.1%, the “serum IGFBP-3 levels (% change from baseline)” value (IGFBP-3; SS1 10 mg/kg IV single dose, 144 h post-injection) was −51.05 +/− 8.85% and the “serum IGFBP-3 levels (% change from baseline)” value (IGFBP-3; SS1 10 mg/kg IV single dose, 192 h post-injection) was −45.95 +/− 6.35%. For the same molecule, the “serum IGFBP-3 levels (% change from baseline)” value (IGFBP-3; SS1 10 mg/kg IV single dose, 312 h post-injection) was −38.7 +/− 9.6%, the “serum IGFBP-3 levels (% change from baseline)” value (IGFBP-3; SS1 10 mg/kg IV single dose, 336 h post-injection) was −42.25 +/− 1.85% and the “serum IGFBP-3 decrease below baseline” value (IGFBP-3; SS1 10 mg/kg IV single dose, by 72 hours) was roughly 38%. The “serum IGFBP-3 decrease below baseline” value (IGFBP-3; SS1 10 mg/kg IV single dose, by 144 hours) was roughly 51%, the “serum IGFBP-3 levels (% change from baseline)” value (IGFBP-3; SS1 30 mg/kg IV single dose, 24 h post-injection) was −10.6 +/− 4.6% and the “serum IGFBP-3 levels (% change from baseline)” value (IGFBP-3; SS1 30 mg/kg IV single dose, 48 h post-injection) was −15.75 +/− 9.35%. For the same molecule, the “serum IGFBP-3 levels (% change from baseline)” value (IGFBP-3; SS1 30 mg/kg IV single dose, 72 h post-injection) was −22.95 +/− 16.15%, the “serum IGFBP-3 levels (% change from baseline)” value (IGFBP-3; SS1 30 mg/kg IV single dose, 96 h post-injection) was −29.4 +/− 13.9% and the “serum IGFBP-3 levels (% change from baseline)” value (IGFBP-3; SS1 30 mg/kg IV single dose, 120 h post-injection) was −38.15 +/− 9.45%. The “serum IGFBP-3 levels (% change from baseline)” value (IGFBP-3; SS1 30 mg/kg IV single dose, 144 h post-injection) was −45.7 +/− 11.9%, the “serum IGFBP-3 levels (% change from baseline)” value (IGFBP-3; SS1 30 mg/kg IV single dose, 192 h post-injection) was −31.05 +/− 16.05% and the “serum IGFBP-3 levels (% change from baseline)” value (IGFBP-3; SS1 30 mg/kg IV single dose, 312 h post-injection) was −40.65 +/− 5.05%. For the same molecule, the “serum IGFBP-3 levels (% change from baseline)” value (IGFBP-3; SS1 30 mg/kg IV single dose, 336 h post-injection) was −39.45 +/− 0.85%, the “serum IGFBP-3 decrease below baseline” value (IGFBP-3; SS1 30 mg/kg IV single dose, by 72 hours) was roughly 23% and the “serum IGFBP-3 decrease below baseline” value (IGFBP-3; SS1 30 mg/kg IV single dose, by 144 hours) was roughly 46%. The “effect on serum IGFBP-3 levels in cynomolgus monkey” value (IGFBP-3; single IV dose 3, 10 or 30 mg/kg) was “dose dependently reduces serum IGFBP-3 levels”, the “ka” value (human GHR) was 77000 M⁻¹ s⁻¹ and 74000 M⁻¹ s⁻¹ and the “kd” value (human GHR) was 6.4e-05 s⁻¹ and 7.7e-05 s⁻¹.

Source: US9249224B2 (RINAT NEUROSCIENCE CORP., priority 2011, dated 2016)
